Assay results published in patent US20210253718A1, “FRIZZLED5 PROTEIN-BINDING AGENTS” (Modmab Therapeutics Corporation, priority 2016, published 2021).

T1: FZD4 CRD (Homo sapiens, UniProt Q9ULV1)
T1 construct: E42-V167; GPI anchor signal (C); expressed in transfected cells; host or cells: CHO cells, lentiviral pLenti-puro
T1 sequence (Q9ULV1 42-167): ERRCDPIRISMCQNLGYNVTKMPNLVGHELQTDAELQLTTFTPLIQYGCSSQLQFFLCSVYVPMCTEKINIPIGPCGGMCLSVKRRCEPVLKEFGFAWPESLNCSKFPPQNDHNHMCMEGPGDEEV

T2: FZD10 CRD (Homo sapiens, UniProt Q9ULW2)
T2 construct: 30-156; GPI anchor signal (C); expressed in transfected cells; host or cells: CHO cells, lentiviral pLenti-puro
T2 sequence (Q9ULW2 30-156): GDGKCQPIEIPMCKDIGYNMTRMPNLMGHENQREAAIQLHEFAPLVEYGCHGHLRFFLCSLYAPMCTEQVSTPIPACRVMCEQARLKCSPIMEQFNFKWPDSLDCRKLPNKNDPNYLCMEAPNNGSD

T3: FZD9 CRD (Homo sapiens, UniProt O00144)
T3 construct: G35-A161; GPI anchor signal (C); expressed in transfected cells; host or cells: CHO cells, lentiviral pLenti-puro
T3 sequence (O00144 35-161): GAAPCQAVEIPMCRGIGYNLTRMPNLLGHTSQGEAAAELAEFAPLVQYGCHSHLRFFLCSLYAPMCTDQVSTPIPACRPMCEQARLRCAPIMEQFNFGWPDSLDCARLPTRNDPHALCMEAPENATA

T4: FZD5 CRD (Homo sapiens, UniProt Q13467)
T4 construct: K29-T156; GPI anchor signal (C); expressed in transfected cells; host or cells: CHO cells, lentiviral pLenti-puro
T4 sequence (Q13467 29-156): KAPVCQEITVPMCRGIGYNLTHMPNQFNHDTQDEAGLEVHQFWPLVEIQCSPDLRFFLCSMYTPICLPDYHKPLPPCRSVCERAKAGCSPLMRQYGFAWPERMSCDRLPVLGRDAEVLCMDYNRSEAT

T5: FZD6 CRD (Homo sapiens, UniProt O60353)
T5 construct: S20-P146; GPI anchor signal (C); expressed in transfected cells; host or cells: CHO cells, lentiviral pLenti-puro
T5 sequence (O60353 20-146): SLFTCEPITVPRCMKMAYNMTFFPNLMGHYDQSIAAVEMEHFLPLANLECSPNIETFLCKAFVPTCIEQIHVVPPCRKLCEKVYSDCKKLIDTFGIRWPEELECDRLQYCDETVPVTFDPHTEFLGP


Tests used:
Test in all cases: Immunofluorescence of anti-FZD5 Fab binding to CHO cells overexpressing Frizzled CRD
Set-up in all cases: key: −: no binding; +: very weak binder; ++: weak binder; +++: good binder; ++++: very good binder
FZD4 CRD = biological target: T1, FZD4 CRD
Procedure: (§1) Plasmids: pLCKO lentiviral vector used for knockout (TKO) library construction and expression of individual gRNAs was constructed as described previously (Hart et al., 2015). Briefly, single guide RNA (sgRNA) scaffold was amplified from px330 (Addgene 42230) and cloned into pLKO.TRC005 lentiviral vector (Broad Institute, Cambridge, Mass.) using AgeI/EcoRI restriction sites. BfuAI sites were added at the 5′ end of the sgRNA scaffold for cloning the TKO library or individual gRNA target sequences. Lenti Cas9-2A-BsdR vector used to generate Cas9 stable expression cell lines was constructed as described previously (Hart et al., 2015). Briefly, lentiCRISPR pXPR_001 (Addgene 49535) was modified through removal of the sgRNA scaffold region through NdeI/EcoRI digest and blunt ends generation using Large Klenow Fragment (NEB). 2A-puro was replaced with 2A-BsdR by PCR using the NheI/MluI sites. Each of the 10 human Frizzled cysteine rich domains (CRDs) were cloned into the lentiviral expression plasmid pLenti-puro in the following cassette: FZD_CRD-MYC-GPI.
(§2) To confirm that the FZD5-WNT7B circuit is not driven simply by expression and rule out the possibility of a disconnect between RNA and protein levels for the Wnt receptors in HPAF-II cells, a panel of recombinant Fabs were generated, alternatively referred to herein as ‘Frizzled profiler’, that can detect and discriminate all but one of the ten Frizzled receptors. […] To characterize the binding specificity of these Fabs on cells, a panel of 10 CHO cell lines was generated, each expressing the CRD domain of a different myc-tagged Frizzled family member anchored at the plasma membrane through a GPI anchor (CHO-myc-FZDGPI). Despite the high sequence identity between Frizzled family members (FIG. 7A, FIG. 7B), selective Fabs were identified for FZD4, FZD5, FZD6 and FZD10 as assessed by immunofluorescence and flow cytometry (FIG. 7D and FIG. 8). […] The FZD8 CRD is most homologous to that of FZD5 (FIG. 7B). These Fabs can be used to discriminate expression of FZD1, FZD2, FZD4, FZD5, FZD6, FZD7, FZD8, FZD9 and FZD10 (FIG. 7D and FIG. 8). The ‘Frizzled profiler’ therefore consists of 10 different Fabs that can be used to discriminate expression of 9 different Frizzled family members. The Frizzled profiler was then used to confirm that HPAF-II cells express FZD1, FZD5, FZD6 and possibly FZD8 (FIG. 7E).
(§3) The binding of anti-FZD5 Fabs to cell surface-expressed Frizzled protein was further determined for each member of the Frizzled family via flow cytometry and immunofluorescence analysis of a panel of 10 CHO cell lines, each ectopically over-expressing the extracellular cysteine-rich domain (CRD) of a different Frizzled protein family member.

FZD10 CRD = biological target: T2, FZD10 CRD
Procedure: as §1, §2, §3

FZD9 CRD = biological target: T3, FZD9 CRD
Procedure: as §1, §2, §3

FZD5 CRD = biological target: T4, FZD5 CRD
Procedure: as §1, §2, §3

FZD6 CRD = biological target: T5, FZD6 CRD
Procedure: as §1, §2, §3

FZD2 CRD = biological target: T6, FZD2 CRD (Homo sapiens, UniProt Q14332)
T6 construct: D35-P161; GPI anchor signal (C); expressed in transfected cells; host or cells: CHO cells, lentiviral pLenti-puro
Procedure: as §1, §2, §3

FZD1 CRD = biological target: T7, FZD1 CRD (Homo sapiens, UniProt Q9UP38)
T7 construct: D112-P238; GPI anchor signal (C); expressed in transfected cells; host or cells: CHO cells, lentiviral pLenti-puro
Procedure: as §1, §2, §3

Row | Immunofluorescence binding, Frizzled CRD overexpressed on CHO cells: FZD4 (FZD4 CRD) | Immunofluorescence binding, Frizzled CRD overexpressed on CHO cells: FZD10 (FZD10 CRD) | Immunofluorescence binding, Frizzled CRD overexpressed on CHO cells: FZD9 (FZD9 CRD) | Immunofluorescence binding, Frizzled CRD overexpressed on CHO cells: FZD5 (FZD5 CRD) | Immunofluorescence binding, Frizzled CRD overexpressed on CHO cells: FZD6 (FZD6 CRD) | Immunofluorescence binding, Frizzled CRD overexpressed on CHO cells: FZD2 (FZD2 CRD) | Immunofluorescence binding, Frizzled CRD overexpressed on CHO cells: FZD1 (FZD1 CRD) | Molecule
1 | − | − | − | ++++ | − | − |  | Fab-2901: anti-FZD5 Fab with antibody variable region Fv-2901; CDR SEQ ID NOs: 35, 36, 40, 79, 116, 154 (antibody, V domains shown) VH: EVQLVESGGGLVQPGGSLRLSCAASGFNISYSYMHWVRQAPGKGLEWVASIYSYSSYTYYADSVKGRFTISADTSKNTAYLQMNSLRAEDTAVYYCARSWYYWSPSSGMDYWGQGTLVTVSS VL: DIQMTQSPSSLSASVGDRVTITCRASQSVSSAVAWYQQKPGKAPKLLIYSASSLYSGVPSRFSGSRSGTDFTLTISSLQPEDFATYYCQQGGFLITFGQGTKVEIK
2 | − | − | − | + | − | − |  | Fab-2905: anti-FZD5 Fab with antibody variable region Fv-2905; CDR SEQ ID NOs: 35, 36, 44, 83, 120, 157 (antibody, V domains shown) VH: EVQLVESGGGLVQPGGSLRLSCAASGFNLSYYYMHWVRQAPGKGLEWVASIYSSYSYTSYADSVKGRFTISADTSKNTAYLQMNSLRAEDTAVYYCARSGYALDYWGQGTLVTVSS VL: DIQMTQSPSSLSASVGDRVTITCRASQSVSSAVAWYQQKPGKAPKLLIYSASSLYSGVPSRFSGSRSGTDFTLTISSLQPEDFATYYCQQSSWYYGYPFTFGQGTKVEIK
3 | − | − | − | +++ | − | +++ | ++++ | Fab-2898: anti-FZD5 Fab with antibody variable region Fv-2898; CDR SEQ ID NOs: 35, 36, 37, 76, 113, 152 (antibody, V domains shown) VH: EVQLVESGGGLVQPGGSLRLSCAASGFNIYSYSMHWVRQAPGKGLEWVASIYSSSGSTSYADSVKGRFTISADTSKNTAYLQMNSLRAEDTAVYYCARAVWGLDYWGQGTLVTVSS VL: DIQMTQSPSSLSASVGDRVTITCRASQSVSSAVAWYQQKPGKAPKLLIYSASSLYSGVPSRFSGSRSGTDFTLTISSLQPEDFATYYCQQWWGYYSLITFGQGTKVEIK
4 | − | − | − | ++++ | − |  | ++ | Fab-2925: anti-FZD5 Fab with antibody variable region Fv-2925; CDR SEQ ID NOs: 35, 36, 64, 102, 140, 172 (antibody, V domains shown) VH: EVQLVESGGGLVQPGGSLRLSCAASGFNLSYSSMHWVRQAPGKGLEWVASIYPSYGSTYYADSVKGRFTISADTSKNTAYLQMNSLRAEDTAVYYCARYGYFGLDYWGQGTLVTVSS VL: DIQMTQSPSSLSASVGDRVTITCRASQSVSSAVAWYQQKPGKAPKLLIYSASSLYSGVPSRFSGSRSGTDFTLTISSLQPEDFATYYCQQAWVYASLFTFGQGTKVEIK
5 | − | − | − | +++ | − | +++ | +++ | Fab-2899: anti-FZD5 Fab with antibody variable region Fv-2899; CDR SEQ ID NOs: 35, 36, 38, 77, 114, 153 (antibody, V domains shown) VH: EVQLVESGGGLVQPGGSLRLSCAASGFNLYYYYMHWVRQAPGKGLEWVASIYPSSGSTSYADSVKGRFTISADTSKNTAYLQMNSLRAEDTAVYYCARGALDYWGQGTLVTVSS VL: DIQMTQSPSSLSASVGDRVTITCRASQSVSSAVAWYQQKPGKAPKLLIYSASSLYSGVPSRFSGSRSGTDFTLTISSLQPEDFATYYCQQWYSSYGLITFGQGTKVEIK
6 | − | − | − | ++++ | − | − | − | Fab-2900: anti-FZD5 Fab with antibody variable region Fv-2900; CDR SEQ ID NOs: 35, 36, 39, 78, 115, 153 (antibody, V domains shown) VH: EVQLVESGGGLVQPGGSLRLSCAASGFNLSSYYIHWVRQAPGKGLEWVASISSSSSSTSYADSVKGRFTISADTSKNTAYLQMNSLRAEDTAVYYCARGALDYWGQGTLVTVSS VL: DIQMTQSPSSLSASVGDRVTITCRASQSVSSAVAWYQQKPGKAPKLLIYSASSLYSGVPSRFSGSRSGTDFTLTISSLQPEDFATYYCQQWYSGSSLFTFGQGTKVEIK
